In patent US20240043859A1, “HERBICIDE-RESISTANT PROTEIN, AND GENE AND USE THEREOF” (QINGDAO KINGAGROOT CHEMICAL COMPOUND CO., LTD., priority 2020, published 2024):
Entries after “also recorded” stand apart in the source; their conditions may differ.

B1: QYD73: AAD-like enzyme, SEQ ID NO. 145 (protein)
chain: MARTFDVQPLDATFGAVISGVKLAALDDETWRELYATWLQYALLVFPGQHLSRDQQIAFARRFGPLEFEIIALSNVKSDGTIRSEVENDDVIKVLKGNMGWHADSTYMPVQAKGAVFTAEVVPSVGGQTGWADMRAAYDALDGATRQKVEQLSAYHSLHYSQSKLGHQHKPGSAYSGYGFHDGPVPLRPLVKTHPETGRKSLLIGRHAHNIPGMDKDESARFLEDLVASACQPPRIYHHTWAAGDAVVWDNRCLLHQATPWDMTQPRVMWHSRIAGDPLSEAALG
modifications: Synthetic polypeptide, QYD73, D73
B2: QYD50: AAD-like enzyme, SEQ ID NO. 99 (protein)
chain: MEEPDMARTLGIEPLAGTTFGAVVKGVKVTALDDATWRELHAAWLQYALLIFPDQHLKRAEQIAFARRFGPLEFEMAAISNVKADGSLRIEADNDDVMKILKGNMGWHCDSTYMPVQAKGAVFSAEVVPSIGGRTGFADMRAAWDALDDALKARIETLSAYHSLHHSQSKLGHQTNKRDGEYSGYGLHDGPVPLRQLVKVHPETGRKSLLIGRHAHNIPGMDKADSERLLQELVDFACQPPRIYHHDWAAGDAVVWDNRCLLHQATPWDMTQPRVMWHSRIAGDPRSEAALGGSAVSAAASG
modifications: Synthetic polypeptide, QYD50, D50
B3: QYD74: AAD-like enzyme, SEQ ID NO. 147 (protein)
chain: MARAFDIEPLDATFGAIITGVKLAALDDAVWRDLYAAWLEYALLIFPSQNLGRDEQIAFAKRFGALEFELAPISNVNSDGTLITDPDNDILKVLKGNMGWHSDSTYMPIQAKGAVFSARVVPKSGGSTGWADMRAAYDALDDNLKRKVERLAAHHSLRYSQAKLGHFPKKHSAYSGYGFHDGPEPLRPLVKTHPETGRKSLLIGRHAHNIPGMSAEESERFLQELVDFACRPPRVYHHEWTAGDVAVWDNRCLLHQATPWDMSEPRVMWHSRIAGDPTTESALA
modifications: Synthetic polypeptide, QYD74, D74
B4: QYD76: AAD-like enzyme, SEQ ID NO. 151 (protein)
chain: MARMFDIAPLDATFGAVVTGVKVTRIDDATWRDLHAAWLEYALLIFPGQFLSRAEQIAFAKRFGPLEFEMAPISNVKADGTIRIEADNDDVVKVLKGNMGWHADSTYMPVQAKGAVFSAEVVPGEGGRTGWADMRAAYDALDAARRVRVESLTAYHSLYYSQAKLGHQPKRGSDYSGYGFHDGPVPRRPLVKVHPETGRKSLLIGRHAHNIPGMDVAESTQFLESLVDFACQPPRIYHHQWTAGDAVVWDNRCLLHRATPWDMTKPRVMWHSRIAGDPVSEASLG
modifications: Synthetic polypeptide, QYD76, D76
B5: QYD72: AAD-like enzyme, SEQ ID NO. 143 (protein)
chain: MAADAPFVVKPLPASFGAVVTGLALADLDEAAFAALYRTWLDYALLIFPGQHLDRDQQIAFARRFGPLEFDIAPISNVRSDGSVRPDDDADDVVKVLKGNMGWHCDSTYMPVQAKGAVFTAHVVPEDGGETDWADMRAAYDALDPAMRRRIEGLSAYHSLRHSQGKLGHVHKPGSAYSGYGMTVEAPPLRPLVKVHPETSRKTLMVGRHAYGIPGFEDAESERLLDELADFACRPPRTWRHSWTPGDAVIWDNRALMHRACPWDMTRPRVMYHSRLAGDPVAEFAAPA
modifications: Synthetic polypeptide, QYD72, D72
B6: QYD34: AAD-like enzyme, SEQ ID NO. 67 (protein)
chain: MSMQVIPLDATFGATVTGLKLSELDEAVFAEIYDHWLRYSLLVFPGQNLDNEQQVTFAKRFGALEIDLVELSNVKDDGSLRTAPDDDRIKILKGNMGWHHDSTYMPVQAKGAVFRADTVPSHGGETGWADMCAAYDALGDAMRNRIEGLSAHHSLTYSQGKAGFKHKDKDSEYNGYGLDQDGAPLRPLVKTHAETGRKTLTIGRHAHAVPGLSQADSEALLTELVDFACQPPRIYHHGWQPGDVVVWDNRCLMHQACPWDMAERRVMFHSRLAGDPEHEFAAPN
modifications: Synthetic polypeptide, QYD34, D34
B7: QYD58: AAD-like enzyme, SEQ ID NO. 115 (protein)
chain: MARTFDIEPLAGTTFGAVVRGMKVAILDDAGWRDLYAAWLKYALLVFPGQHLKRDEQIAFAKRFGALEFEMAALSNVKSDGTLRQEKDNDDMMKILKGNMGWHADSTYMPVQAKGAVFSAEIVPGAGGQTGFADMRAAYDALDAGRKAKVERLAAHHSLHYSQSKLGHQTKKQDGEYSGYGLHDGPVPLRPLVKTHPETGRKSLLIGRHAHNIPGMDKAESERLLQELVDFACQPPRVYHHDWTAGDAVVWDNRCLLHQATPWDMTQPRVMWHSRIAGDPRSEAALGVTAVSAAASG
modifications: Synthetic polypeptide, QYD58, D58

Legend:
[1] = assay type: cell-based, Escherichia coli
Procedure: (§1) To transform the plasmids to be tested, an AAD12-expressing plasmid and a blank control plasmid pET15b were respectively transformed into the protein expression E. coli BL21(DE3) strains. A monoclone was selected and inoculated in a 10 ml centrifuge tube with 3 ml LB medium, and cultivated at 37° C., 200 rpm for 6-8 hours. […] The temperature was switched to 28° C. and the cultivation continued overnight. In the next morning, 200 μL of each bacteria solution was taken and centrifuged to precipitate thallus, 180 μL of the supernatant was taken and added in a 96-well plate, and 20 μL of borate buffer of pH 10 was added. Then the mixture was added with 2 μL of 8% potassium ferricyanide and mixed well, followed by adding 2 μL of 2% 4-aminoantipyrine, and placed at room temperature for 5 min to observe the color and detect the A510 value. […]

[2] = Chromogenic reaction of degrading herbicides in bacteria: 2,4-D; assay type: cell-based, Escherichia coli; conditions: recombinant E. coli expressing the gene, 2,4-D added to the medium, red = phenols
Outline: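 Colour from 2,4-D degradation was detected at A510 after 5 min at room temperature, with 4-aminoantipyrine and ferricyanide added to culture supernatant in pH 10 borate. Cultures were AAD12-expressing or empty-vector (pET15b) BL21(DE3), grown overnight at 28 °C with 0.5 mM 2,4-D, 0.1 mM IPTG and 2 mM α-ketoglutarate.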

[3] = Chromogenic reaction of degrading herbicides in bacteria: triclopyr; assay type: cell-based, Escherichia coli; conditions: recombinant E. coli expressing the gene
Procedure: as §1

Arabidopsis thaliana = assay: Herbicide resistance of transgenic Arabidopsis thaliana seedlings on plate medium (root growth); assay type: in vivo; conditions: Arabidopsis overexpressing the gene
Procedure: Expression in Arabidopsis thaliana was regulated by its AtUbi10 Arabidopsis thaliana ubiquitin promoter and the MAS (mannopine synthase) terminator. Hygromycin resistance gene (HygR=hpt) served as the selection marker.
Preparation of Agrobacterium infection solution: An activated Agrobacterium (GV3101) monoclone was picked and inoculated in 30 ml YEP liquid medium [yeast powder 10 g/L, tryptone 10 g/L, NaCl 5 g/L, 25 mg/L Rifampicin and 50 mg/L Kanamycin], shaking-cultured at 200 rmp/min, 28° C. overnight until the OD600 was about 1.0-1.5, then centrifuged at 6000 rmp/min for 10 min to collect the bacteria, and the supernatant was discarded. Arabidopsis thaliana infection solution (sucrose 50 g/L, Silwet L-77 300 μL/L, no need to adjust pH) was used to resuspend the cells to OD600=0.8 for later use.
Genetic transformation of Arabidopsis thaliana by flower dipping: Before transformation of Arabidopsis thaliana plants, attentions were paid to whether the plants were growing well, the inflorescences were abundant, and no stress response occurred. The first transformation was performed when plants were about 20 cm high. Plants could be properly watered if the soil was dry. The grown siliques were cut off with scissors the day before transformation. The inflorescences of the plants to be transformed were soaked in the above-mentioned Agrobacterium solution for 30 seconds to 1 minute, which was stirred gently during the period. And a layer of liquid film should appear on the infiltrated plant. The transformed plants were cultured in a dark environment for 24 hours, and then taken out and grown in a normal light environment. A second transformation could be performed in the same way a week later.
Seeds were treated with disinfectant for 5 min, washed with sterile water for 5 times and then one part was spread on MS transgenic screening medium (containing 30 μg/mL hygromycin, 100 μg/mL carbenicillin) to screen transgenic seedlings, and the other part was spread on MS medicated medium [containing 250 μg/mL Cefotaxime sodium and 0.3 μM 2,4-D] to screen herbicide-resistant seedlings at mean time. The petri dish spread with seeds was placed at 4° C. for vernalization for 3 days, and taken out to a illumination incubator for cultivation (temperature of 22° C., 16 hours of light, 8 hours of darkness, light intensity of 100-150 μmol/m^2/s, humidity of 75%). After one week, it was observed that the roots of the wild-type control seedlings were not elongated and their growth was inhibited, while the transgenic seedlings had normal root growth, showing drug resistance. The transgenic positive seedlings and herbicide-resistant seedlings were photographed and transplanted into small pots filled with soil for cultivation.
The transgenic lines with the nine vectors, pQY2309, pQY2310, pQY2311, pQY2312, pQY2313, pQY2314, pQY2315, pQY2316 and pQY2317, overexpressing AAD gene in the T2 generation were further tested on plate medium for their resistance to 2,4-D, 2,4-DB sodium and MCPA herbicide. Two events were tested for each transformant.

| Molecule | Chromogenic reaction of degrading herbicides in bacteria: MCPA [1] | Chromogenic reaction of degrading herbicides in bacteria: 2,4-D [2] | Chromogenic reaction of degrading herbicides in bacteria: Triclopyr [3] | further results |
| --- | --- | --- | --- | --- |
| B1 | Yes | Yes | Yes | Chromogenic reaction of degrading herbicides in bacteria: 2,4-D ([2]; listed as D73): could degrade 2,4-D; also recorded: capable of degrading 2,4-D; Chromogenic reaction of degrading herbicides in bacteria: Triclopyr ([3]; listed as D73): slight degradation |
| B2 | Yes | Yes | – | Chromogenic reaction of degrading herbicides in bacteria: 2,4-D ([2]; listed as D50): could degrade 2,4-D; also recorded: capable of degrading 2,4-D; Resistance of transgenic Arabidopsis thaliana: 2,4-D (Arabidopsis thaliana): Yes; Resistance of transgenic Arabidopsis thaliana: MCPA (Arabidopsis thaliana): Yes |
| B3 | Yes | Yes | Yes | Chromogenic reaction of degrading herbicides in bacteria: 2,4-D ([2]; listed as D74): could degrade 2,4-D; also recorded: capable of degrading 2,4-D; Chromogenic reaction of degrading herbicides in bacteria: Triclopyr ([3]; listed as D74): slight degradation |
| B4 | Yes | Yes | Yes | Chromogenic reaction of degrading herbicides in bacteria: 2,4-D ([2]; listed as D76): could degrade 2,4-D; also recorded: capable of degrading 2,4-D; Chromogenic reaction of degrading herbicides in bacteria: Triclopyr ([3]; listed as D76): slight degradation |
| B5 | Yes | Yes | Yes | Chromogenic reaction of degrading herbicides in bacteria: 2,4-D ([2]; listed as D72): could degrade 2,4-D; also recorded: capable of degrading 2,4-D; Chromogenic reaction of degrading herbicides in bacteria: Triclopyr ([3]; listed as D72): slight degradation |
| B6 | NO | Yes | – | Chromogenic reaction of degrading herbicides in bacteria: 2,4-D ([2]; listed as D34): red reactions; Resistance of transgenic Arabidopsis thaliana: 2,4-D (Arabidopsis thaliana): Yes |
| B7 | Yes | Yes | Yes | Chromogenic reaction of degrading herbicides in bacteria: 2,4-D ([2]; listed as D58): could degrade 2,4-D; also recorded: capable of degrading 2,4-D; Chromogenic reaction of degrading herbicides in bacteria: Triclopyr ([3]; listed as D58): slight degradation |
